The source of these data is patent publication US20230357429A1 (JANUX THERAPEUTICS, published 2023).

The EC50 is the midpoint of the concentration-response curve. Low values mean an effect from little substance, high ones a need for much substance. For orientation: Kd means a measure of binding affinity in units of concentration. A low value points to a tighter complex.

The target of assay [1] is T1, Human TROP2 ECD (31-274 AA), biotinylated (human, UniProt P09758 31-274, biotinylated (site not stated)).
T1 construct: also called tumor-associated calcium signal transducer 2; Human TROP2-biotin
T1 sequence: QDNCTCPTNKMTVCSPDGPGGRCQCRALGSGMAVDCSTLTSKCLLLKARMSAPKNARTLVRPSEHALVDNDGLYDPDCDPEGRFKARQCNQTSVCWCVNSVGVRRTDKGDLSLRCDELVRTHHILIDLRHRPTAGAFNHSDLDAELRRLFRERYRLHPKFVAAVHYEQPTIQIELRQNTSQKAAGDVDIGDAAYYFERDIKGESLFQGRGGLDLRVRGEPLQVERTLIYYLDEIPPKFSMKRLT
Put plainly: ELISA on immobilized TROP2. Background: An ELISA detects its analyte on a solid surface through an enzyme-linked reagent.

The target in assay [2] is T1, Human TROP2 ECD (31-274 AA), …. Put plainly: ELISA on immobilized TROP2. The source holds these as a separate data set.
A further assay concerns the target T2, Human TROP2 Full length (human, UniProt P09758 31-323).
T2 sequence: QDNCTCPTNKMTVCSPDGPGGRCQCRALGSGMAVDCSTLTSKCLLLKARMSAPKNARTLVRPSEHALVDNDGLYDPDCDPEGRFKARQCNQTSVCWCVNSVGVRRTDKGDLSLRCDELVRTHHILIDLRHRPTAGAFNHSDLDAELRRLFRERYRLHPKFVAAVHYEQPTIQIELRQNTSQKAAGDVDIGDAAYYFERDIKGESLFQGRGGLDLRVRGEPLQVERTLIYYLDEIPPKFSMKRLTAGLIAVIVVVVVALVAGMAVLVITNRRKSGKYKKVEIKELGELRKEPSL
Briefly: cell-based or functional assay.

Another assay addresses T3, Cyno TROP2 Full length (cynomolgus monkey, UniProt P09758 31-323 (human entry)).
T3 chain: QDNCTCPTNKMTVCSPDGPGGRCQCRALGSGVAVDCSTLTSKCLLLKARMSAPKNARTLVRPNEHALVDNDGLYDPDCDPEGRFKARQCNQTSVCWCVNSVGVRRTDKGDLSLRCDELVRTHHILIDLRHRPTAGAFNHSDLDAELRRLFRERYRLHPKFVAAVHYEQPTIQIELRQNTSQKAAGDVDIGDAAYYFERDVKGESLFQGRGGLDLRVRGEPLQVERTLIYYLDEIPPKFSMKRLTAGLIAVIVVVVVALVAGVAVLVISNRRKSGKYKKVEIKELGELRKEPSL
Put plainly: cell-based or functional assay.

Assay [3] has as its target T1, Human TROP2 ECD (31-274 AA), …. Briefly: ELISA, ratio of EC50 to that of TBD-1 wt.
Assay [4] has the same target. Briefly: ELISA, biotinylated TROP2 ECD on neutravidin plate, Fab titrated.
Assay [5] shares this target. Briefly: BLI (Octet), dissociation half-life from biotinylated human TROP2 ECD. A general note: In BLI a coated tip is dipped into the sample, and binding shifts an interference pattern.
Assay [6] shares this target. Put plainly: BLI (Octet), biotinylated human TROP2 ECD on SAX sensor, Fab 6.25-50 nM.
Assay [7] has the same target. Put plainly: ELISA: biotinylated TROP2 captured on neutravidin plate, Fab titrated, HRP secondary antibody.

Where only a bound is given, the exact number is not on record here.

B1: PC-13 (bispecific antibody)
light: not shown
heavy: GGVDFCGLYHWPICYQGGGGSGGLSGRSDAGSPLGLAGSGGSQVQLQQSGSELKKPGASVKVSCKASGYTFTNYGMNWVKQAPGQGLKWMGWINTYTGEPTYTDDFKGRFAFSLDTSVSTAYLQISSLKADDTAVYFCAAGGFGSSYWYFDVWGQGSLVTVSSASTKGPSVFPLAPSSKSTSGGTAALGCLVKDYFPEPVTVSWNSGALTSGVHTFPAVLQSSGLYSLSSVVTVPSSSLGTQTYICNVNHKPSNTKVDKKVEPKSC
notes: anti-TROP2 R98A
Take B1: the results for the EC50 in [1] and in [2] were 419 nM and more than 1000 nM, respectively.

B2: PC-19 (bispecific antibody)
light: not shown
heavy: GGVDFCALYHWPICYQGGGGSGGLSGRSDAGSPLGLAGSGGSQVQLQQSGSELKKPGASVKVSCKASGYTFTNYGMNWVKQAPGQGLKWMGWINTYTGEPTYTDDFKGRFAFSLDTSVSTAYLQISSLKADDTAVYFCARGGFGSSYWYADVWGQGSLVTVSSASTKGPSVFPLAPSSKSTSGGTAALGCLVKDYFPEPVTVSWNSGALTSGVHTFPAVLQSSGLYSLSSVVTVPSSSLGTQTYICNVNHKPSNTKVDKKVEPKSC
notes: anti-TROP2 F108A
B2 had an EC50 in assay [2] of more than 1000 nM.

B3: PC-23 (bispecific antibody)
light: not shown
heavy: GGVDFCGLYHWPICYQVGGGSGGLSGRSDAGSPLGLAGSGGSQVQLQQSGSELKKPGASVKVSCKASGYTFTNYGMNWVKQAPGQGLKWMGWINTYTGEPTYTDDFKGRFAFSLDTSVSTAYLQISSLKADDTAVYFCAAGGFGSSYWYFDVWGQGSLVTVSSASTKGPSVFPLAPSSKSTSGGTAALGCLVKDYFPEPVTVSWNSGALTSGVHTFPAVLQSSGLYSLSSVVTVPSSSLGTQTYICNVNHKPSNTKVDKKVEPKSC
notes: anti-TROP2 R98A
In turn, B3 returned an EC50 in assay [2] of more than 1000 nM.

B4: TCE-4 (bispecific antibody)
light: not shown
heavy: QVQLQQSGSELKKPGASVKVSCKASGYTFTNYGMNWVKQAPGQGLKWMGWINTYTGEPTYTDDFKGRFAFSLDTSVSTAYLQISSLKADDTAVYFCARGGFGSSYWYADVWGQGSLVTVSSASTKGPSVFPLAPSSKSTSGGTAALGCLVKDYFPEPVTVSWNSGALTSGVHTFPAVLQSSGLYSLSSVVTVPSSSLGTQTYICNVNHKPSNTKVDKKVEPKSC
Turning to B4, the EC50 turned out to be 7.29 nM in assay [1] and 2.5 nM in assay [2].

B5: PC-31 (bispecific antibody)
light: GGVDFCGLYHWPICYQGGGGSGGLSGRSDAGSPLGLAGSGGSDIQLTQSPSSLSASVGDRVSITCKASQDVSIAVAWYQQKPGKAPKLLIYSASYRYTGVPDRFSGSGSGTDFTLTISSLQPEDFAVYYCQQHYITPLTFGAGTKVEIKRTVAAPSVFIFPPSDEQLKSGTASVVCLLNNFYPREAKVQWKVDNALQSGNSQESVTEQDSKDSTYSLSSTLTLSKADYEKHKVYACEVTHQGLSSPVTKSFNRGEC
heavy: not shown
B5: in the assay with Human TROP2 Full length, the “H292 Cytotoxicity EC50 (pM)” value was more than 100000 pM. In the assay with Cyno TROP2 Full length, the “CyTROP2 HEK293 EC50 (pM)” value is more than 100000 pM.

B6: PC-32 (bispecific antibody)
light: GGVDFCGLYHWPICYQGGGGSGGLSGRSDAGSPLGLAGSGGSDIQLTQSPSSLSASVGDRVSITCKASQDVSIAVAWYQQKPGKAPKLLIYSASYRYTGVPDRFSGSGSGTDFTLTISSLQPEDFAVYYCQQHYITPLTFGAGTKVEIKRTVAAPSVFIFPPSDEQLKSGTASVVCLLNNFYPREAKVQWKVDNALQSGNSQESVTEQDSKDSTYSLSSTLTLSKADYEKHKVYACEVTHQGLSSPVTKSFNRGEC
heavy: not shown
With B6, the “H292 Cytotoxicity EC50 (pM)” value in the assay with Human TROP2 Full length worked out at 28100 pM. Moreover, the “CyTROP2 HEK293 EC50 (pM)” value with Cyno TROP2 Full length turned out to be 35900 pM.

B7: TBD-17 (anti-TROP2 Fab, HC S104A) (Fab, V domains shown)
VH: QVQLQQSGSELKKPGASVKVSCKASGYTFTNYGMNWVKQAPGQGLKWMGWINTYTGEPTYTDDFKGRFAFSLDTSVSTAYLQISSLKADDTAVYFCARGGFGSAYWYFDVWGQGSLVTVSS
VL: DIQLTQSPSSLSASVGDRVSITCKASQDVSIAVAWYQQKPGKAPKLLIYSASYRYTGVPDRFSGSGSGTDFTLTISSLQPEDFAVYYCQQHYITPLTFGAGTKVEIKR
notes: also called TBD-17 (HC S104A mutant)
Turning to B7, the “Fold shift in EC50 relative to wt” value in assay [3] turned out to be 2 fold. Further, the EC50 in [4] worked out at 0.4 nM; in assay [7], 0.432 nM. In addition, the “t1/2” value in [5] was 24 min. In [6], this molecule gave a Kd of 0.9 nM.

B8: TBD-21 (anti-TROP2 Fab, HC F108A) (Fab, V domains shown)
VH: QVQLQQSGSELKKPGASVKVSCKASGYTFTNYGMNWVKQAPGQGLKWMGWINTYTGEPTYTDDFKGRFAFSLDTSVSTAYLQISSLKADDTAVYFCARGGFGSSYWYADVWGQGSLVTVSS
VL: DIQLTQSPSSLSASVGDRVSITCKASQDVSIAVAWYQQKPGKAPKLLIYSASYRYTGVPDRFSGSGSGTDFTLTISSLQPEDFAVYYCQQHYITPLTFGAGTKVEIKR
notes: also called TBD-21 (HC F108A mutant)
In the case of B8, the “Fold shift in EC50 relative to wt” value in [3] was 20.5 fold. Also, the EC50 in assay [4] turned out to be 4.1 nM; in [7], 4.11 nM. In assay [5], the “t1/2” value is 8 min. The molecule also returned a Kd in assay [6] of 4.76 nM.

B9: TBD-20 (anti-TROP2 Fab, HC Y107A) (Fab, V domains shown)
VH: QVQLQQSGSELKKPGASVKVSCKASGYTFTNYGMNWVKQAPGQGLKWMGWINTYTGEPTYTDDFKGRFAFSLDTSVSTAYLQISSLKADDTAVYFCARGGFGSSYWAFDVWGQGSLVTVSS
VL: DIQLTQSPSSLSASVGDRVSITCKASQDVSIAVAWYQQKPGKAPKLLIYSASYRYTGVPDRFSGSGSGTDFTLTISSLQPEDFAVYYCQQHYITPLTFGAGTKVEIKR
With B9, the “Fold shift in EC50 relative to wt” value in assay [3] was 262 fold. Moreover, the EC50 in [4] stood at 52.3 nM; in assay [7], 52.2 nM. In addition, the “t1/2” value in [5] worked out at 10 min. In assay [6], this molecule showed a Kd of 6.34 nM.

B10: TBD-22 (anti-TROP2 Fab, HC D109A) (Fab, V domains shown)
VH: QVQLQQSGSELKKPGASVKVSCKASGYTFTNYGMNWVKQAPGQGLKWMGWINTYTGEPTYTDDFKGRFAFSLDTSVSTAYLQISSLKADDTAVYFCARGGFGSSYWYFAVWGQGSLVTVSS
VL: DIQLTQSPSSLSASVGDRVSITCKASQDVSIAVAWYQQKPGKAPKLLIYSASYRYTGVPDRFSGSGSGTDFTLTISSLQPEDFAVYYCQQHYITPLTFGAGTKVEIKR
notes: also called TBD-22 (HC D109A mutant)
Turning to B10, the “Fold shift in EC50 relative to wt” value in assay [3] was determined as 5.5 fold. Also, the EC50 in [4] and in [7] was 1.1 nM throughout. In addition, the “t1/2” value in assay [5] came out at 33 min. Moreover, in assay [6], the Kd is 2.35 nM.

B11: TBD-23 (anti-TROP2 Fab, HC V110A) (Fab, V domains shown)
VH: QVQLQQSGSELKKPGASVKVSCKASGYTFTNYGMNWVKQAPGQGLKWMGWINTYTGEPTYTDDFKGRFAFSLDTSVSTAYLQISSLKADDTAVYFCARGGFGSSYWYFDAWGQGSLVTVSS
VL: DIQLTQSPSSLSASVGDRVSITCKASQDVSIAVAWYQQKPGKAPKLLIYSASYRYTGVPDRFSGSGSGTDFTLTISSLQPEDFAVYYCQQHYITPLTFGAGTKVEIKR
Regarding B11, in assay [3], the “Fold shift in EC50 relative to wt” value came out at 1 fold. Further, the EC50 in [4] worked out at 0.2 nM; in assay [7], 0.236 nM. Further, the “t1/2” value in assay [5] amounted to 34 min. In [6], the Kd worked out at 0.401 nM.

B12: PC-47 (bispecific antibody)
light: GGVDFCGLYHWPICYQGGGGSGGGGGSGGGGSGGASSGAGGSDIQLTQSPSSLSASVGDRVSITCKASQDVSIAVAWYQQKPGKAPKLLIYSASYRYTGVPDRFSGSGSGTDFTLTISSLQPEDFAVYYCQQHYITPLTFGAGTKVEIKRTVAAPSVFIFPPSDEQLKSGTASVVCLLNNFYPREAKVQWKVDNALQSGNSQESVTEQDSKDSTYSLSSTLTLSKADYEKHKVYACEVTHQGLSSPVTKSFNRGEC
heavy: not shown
Turning to B12, the “H292 Cytotoxicity EC50 (pM)” value with Human TROP2 Full length is more than 100000 pM. The “CyTROP2 HEK293 EC50 (pM)” value with Cyno TROP2 Full length stood at 17300 pM.
